Here are results for 5 molecules from article doi:10.1101/648071 (bioRxiv, 2019).

Where “and” joins values, the source holds several entries; their conditions need not be identical. Identical values can stand only once. Like-named read-outs stand apart in the source and are kept apart here.

By stoichiometry N is commonly meant the number of molecules, sites or subunits per partner or assembly. A word on the Kd: it is the free concentration of one partner at which half of the binding sites on the other are occupied at equilibrium, for simple one-to-one binding. A lower Kd goes with higher affinity.

Series [1] concerns the target InvC, full-length, C-terminal Strep-tag (Salmonella Typhimurium strain SL1344) (UniProt P0A1B9). Description: native MS.
The target in series [2] is OrgB (co-expressed with Strep-tagged InvC or InvC fragments) (Salmonella Typhimurium strain SL1344). Put plainly: native MS.
The target of series [3] is OrgB, C-terminal His-tag (co-expressed with spaO) (Salmonella Typhimurium strain SL1344). Description: native MS.
Series [4] has as its target SpaO-2SpaOC heterotrimer (Salmonella Typhimurium strain SL1344) (UniProt P40699). Description: native MS.
Series [5] has the same target. Description: native MS. This is another data set of the same source.
In series [6] the target is T1, SpaO, full-length, C-terminal Strep-tag (Salmonella Typhimurium strain SL1344, UniProt P40699 1-303).
T1 sequence (looked up): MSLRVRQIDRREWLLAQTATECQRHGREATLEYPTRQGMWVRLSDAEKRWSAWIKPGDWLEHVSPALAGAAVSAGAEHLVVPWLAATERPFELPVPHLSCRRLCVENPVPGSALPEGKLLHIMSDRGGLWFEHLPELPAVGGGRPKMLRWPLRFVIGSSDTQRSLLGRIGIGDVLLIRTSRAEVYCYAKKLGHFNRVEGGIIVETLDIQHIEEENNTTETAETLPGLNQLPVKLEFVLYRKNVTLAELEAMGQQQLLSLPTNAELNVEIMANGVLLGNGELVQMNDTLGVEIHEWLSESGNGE
Description: native MS.

Series [7] deals with T2, SpaO N-terminal domain (SpaO 1-145) (Salmonella Typhimurium strain SL1344, UniProt P40699 1-145).
T2 sequence (looked up): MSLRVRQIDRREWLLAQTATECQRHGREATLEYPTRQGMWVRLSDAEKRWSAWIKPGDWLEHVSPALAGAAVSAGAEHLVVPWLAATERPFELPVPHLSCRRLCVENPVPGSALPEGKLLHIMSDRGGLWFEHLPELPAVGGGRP
Description: ITC. On the technique in general: ITC needs no label: the signal is the heat of the interaction.

Series [8] deals with T2, SpaO N-terminal domain (SpaO 1-145). Put plainly: SEC-MALS. (In general: SEC sorts molecules by how far they enter the pores of the column.)
The target is the same in series [9]. Description: native MS.
In series [10] the target is T3, SpaO SPOA1-SPOA2 construct (SpaO 140-297) (Salmonella Typhimurium strain SL1344, UniProt P40699 140-297).
T3 sequence (looked up): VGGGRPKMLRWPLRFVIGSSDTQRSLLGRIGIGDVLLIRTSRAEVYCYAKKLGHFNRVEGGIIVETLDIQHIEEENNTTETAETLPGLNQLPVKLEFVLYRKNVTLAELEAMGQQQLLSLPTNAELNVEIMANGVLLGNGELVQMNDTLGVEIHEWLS
Description: native MS.

The series “native MS” deals with the molecule itself. Description: native MS.
For series [11], the target named is T4, SpaO in the SpaO/SpaOC/OrgB/InvC complex (spaO+orgB+invC co-expression) (Salmonella Typhimurium strain SL1344, UniProt P40699 1-303).
T4 sequence (looked up): T1 sequence (looked up)
Description: native MS.

Sequence of InvC, full-length, C-terminal Strep-tag (Salmonella Typhimurium strain SL1344) (P0A1B9 whole entry, the tested form may be a part): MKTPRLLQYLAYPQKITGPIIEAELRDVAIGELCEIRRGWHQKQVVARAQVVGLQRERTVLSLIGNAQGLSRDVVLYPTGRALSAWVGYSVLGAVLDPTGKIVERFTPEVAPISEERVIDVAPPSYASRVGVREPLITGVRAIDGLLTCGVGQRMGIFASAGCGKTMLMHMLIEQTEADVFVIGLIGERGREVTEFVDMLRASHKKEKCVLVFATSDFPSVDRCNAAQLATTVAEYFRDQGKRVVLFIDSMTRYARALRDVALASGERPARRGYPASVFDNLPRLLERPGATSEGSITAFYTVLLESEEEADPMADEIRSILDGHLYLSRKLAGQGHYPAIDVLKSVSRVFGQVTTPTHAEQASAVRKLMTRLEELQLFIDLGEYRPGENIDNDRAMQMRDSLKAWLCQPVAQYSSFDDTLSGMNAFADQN

The molecule “OrgB (co-expressed with Strep-tagged InvC or InvC fragments) (natural protein)” registered a stoichiometry N (OrgB per InvC) in series [1] of 2. This molecule also registered a stoichiometry N in [2] of 2.
With “OrgB, C-terminal His-tag (co-expressed with spaO) (natural protein)”, in series [3], the stoichiometry N is 2.
Turning to “SpaO-2SpaOC heterotrimer (from UniProt P40699 1-303; P40699 203-303) (complex)”, the stoichiometry N in [4] and in series [5] was 2 throughout.

B1: SpaOC, short product of the spaO gene, C-terminal Strep-tag (natural protein, Salmonella Typhimurium strain SL1344, UniProt P40699 203-303, looked up)
chain: METLDIQHIEEENNTTETAETLPGLNQLPVKLEFVLYRKNVTLAELEAMGQQQLLSLPTNAELNVEIMANGVLLGNGELVQMNDTLGVEIHEWLSESGNGE
Turning to B1, the “stoichiometry N” value in [6] is 2 SpaOC per SpaO; in [8], 2 SpaOC per SpaO(1-145); in series [9] it was 4 SpaOC per SpaO(1-145); in series [10], 2 SpaOC per SpaO(140-297); in the series “native MS”, 2 and 4. The molecule also yielded a dissociation constant Kd in [7] of 1040 ± 210 nM.

B2: SpaOC in the SpaO/SpaOC/OrgB/InvC complex (spaO+orgB+invC co-expression) (natural protein, Salmonella Typhimurium strain SL1344, UniProt P40699 203-303, looked up)
chain: B1 chain
For B2, the “stoichiometry N” value in series [11] was 2 SpaOC per SpaO.
